{
  "source": "paper PMC8273494",
  "biological_target": "hnRNP A1 internal_change (UniProt P09651)",
  "sequence (P09651 other isoform, or with tags, fused parts or gaps)": "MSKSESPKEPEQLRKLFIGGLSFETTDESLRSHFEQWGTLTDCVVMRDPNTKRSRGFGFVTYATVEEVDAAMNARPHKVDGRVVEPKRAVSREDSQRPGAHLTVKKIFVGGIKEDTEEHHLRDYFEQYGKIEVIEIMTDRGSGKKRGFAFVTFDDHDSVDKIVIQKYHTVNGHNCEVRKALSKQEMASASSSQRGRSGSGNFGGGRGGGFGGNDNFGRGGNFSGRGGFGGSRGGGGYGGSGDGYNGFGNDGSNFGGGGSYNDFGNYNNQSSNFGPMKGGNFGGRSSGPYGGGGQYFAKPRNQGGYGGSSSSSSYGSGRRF",
  "experiment": "SPR",
  "conditions": "hnRNP A1 immobilized; very hard to regenerate; called non-special binding; phosphorothioate at all 30 linkages (stereorandom); SPR: 10 mM PBS (138 mM NaCl, 2.7 mM KCl, 10 mM Na2HPO4, 1.76 mM KH2PO4, 0.05% Tween-20), pH 7.4, 25 C, aptamer 0.39-50 nM; BLI: biotinylated aptamer on SA …",
  "note": "pKd: −log10 of the molar value.",
  "data": [
    {"sequence": "TGTGGCGAGGTAGGTGGGGTGTGTGTGTATC [WW-20]", "values": [
      {"measurement": "pKd", "result": 10.85}
    ]}
  ]
}
